± gives the uncertainty stated by the source.
B1: GA-binding protein alpha chain, residues 172 to 250; numbered along this chain, Q06546 (parent)
chain: GYRKEQERLGIPYDPIQWSTDQVLHWVVWVMKEFSMTDIDLTTLNISGRELCSLNQEDFFQRVPRGEILWSHLELLRKY

Variants of: B1
Assay: abundance fitness (aPCA) (normalised: wild type 0, dead -1); higher = more abundant; growth selection in yeast, the domain comes from the species named
Conditions: Homo sapiens

Abundance fitness of substitutions, site by site:
C52: A -0.22 ± 0.034 | S -0.335 ± 0.045 | N -0.47 ± 0.13 | Q -0.615 ± 0.11 | K -0.887 ± 0.17 | P -1.03 ± 0.2 | Y -0.431 ± 0.14 | F -0.333 ± 0.064 | L -0.077 ± 0.03 | E -0.457 ± 0.073 | I 0.076 ± 0.095 | G -0.575 ± 0.041 | V -0.122 ± 0.045 | T -0.226 ± 0.063
F60: L 0.033 ± 0.042 | R 0.003 ± 0.04 | Y -0.06 ± 0.1 | N -0.183 ± 0.17 | K -0.048 ± 0.092 | G -0.101 ± 0.038 | S 0 ± 0.051 | Q -0.053 ± 0.071 | V 0.049 ± 0.037 | T -0.044 ± 0.061 | H -0.118 ± 0.13 | C -0.088 ± 0.11 | M 0.121 ± 0.1 | W -0.211 ± 0.051 | E -0.074 ± 0.097 | P -0.527 ± 0.062 | A -0.03 ± 0.046 | I 0.039 ± 0.1
R62: V -0.039 ± 0.08 | Q -0.106 ± 0.074 | L 0.008 ± 0.037 | C -0.143 ± 0.055 | A -0.132 ± 0.16 | S -0.156 ± 0.028 | F -0.192 ± 0.068 | E -0.197 ± 0.083 | P -1.06 ± 0.13 | W -0.314 ± 0.039 | H -0.213 ± 0.16 | D -0.797 ± 0.35 | T -0.194 ± 0.056 | K -0.014 ± 0.089 | M 0.07 ± 0.06 | Y -0.133 ± 0.13 | G -0.426 ± 0.06
S47: I -0.279 ± 0.25 | G -0.14 ± 0.032 | F -0.866 ± 0.16 | D -0.07 ± 0.099 | R -0.277 ± 0.034 | P -0.04 ± 0.038 | E -0.061 ± 0.058 | V -0.418 ± 0.047 | W -0.812 ± 0.093 | A -0.161 ± 0.041 | N -0.041 ± 0.1 | K -0.137 ± 0.062 | M -0.446 ± 0.086 | C -0.039 ± 0.073 | T 0.03 ± 0.042 | Q -0.276 ± 0.065 | H -0.266 ± 0.078 | Y -0.637 ± 0.15
G48: P -0.633 ± 0.066 | F -0.796 ± 0.16 | S -0.804 ± 0.082 | L -0.982 ± 0.12 | T -0.813 ± 0.23 | K -0.951 ± 0.39 | D -0.804 ± 0.14 | W -0.84 ± 0.13 | C -0.919 ± 0.14 | A -0.788 ± 0.073 | R -0.944 ± 0.098 | H -0.305 ± 0.19 | M -0.99 ± 0.3 | N -0.578 ± 0.39 | Q -1.02 ± 0.27 | V -0.884 ± 0.084
L54: V -0.341 ± 0.058 | S -0.693 ± 0.072 | H -0.486 ± 0.25 | Q -0.446 ± 0.089 | E -0.484 ± 0.17 | G -0.791 ± 0.072 | D -0.842 ± 0.35 | R -0.682 ± 0.046 | K -0.649 ± 0.16 | I -0.157 ± 0.095 | F -0.051 ± 0.07 | Y -0.273 ± 0.34 | C -0.374 ± 0.084 | M -0.009 ± 0.061 | W -0.021 ± 0.049
Q61: T 0.014 ± 0.053 | I -0.178 ± 0.11 | E -0.041 ± 0.059 | C -0.091 ± 0.075 | S 0.004 ± 0.045 | Y -0.203 ± 0.13 | K -0.016 ± 0.14 | A -0.014 ± 0.038 | P -0.777 ± 0.12 | L -0.009 ± 0.049 | M -0.022 ± 0.06 | V -0.01 ± 0.042 | D -0.155 ± 0.088 | G -0.029 ± 0.033 | R -0.011 ± 0.029 | W -0.298 ± 0.043
Q56: H -0.049 ± 0.083 | C -0.162 ± 0.068 | D -0.262 ± 0.091 | K -0.004 ± 0.091 | G -0.245 ± 0.04 | F -0.087 ± 0.097 | E -0.015 ± 0.054 | R -0.008 ± 0.037 | Y 0.025 ± 0.099 | P -0.178 ± 0.055 | L -0.291 ± 0.043 | M -0.107 ± 0.066 | T -0.132 ± 0.066 | N -0.455 ± 0.13 | I -0.133 ± 0.088 | A -0.044 ± 0.047 | W -0.351 ± 0.065 | V -0.184 ± 0.047
N55: C -0.124 ± 0.051 | V -0.148 ± 0.04 | W -0.782 ± 0.13 | P -0.039 ± 0.048 | L -0.252 ± 0.03 | S 0.012 ± 0.035 | D 0.008 ± 0.054 | G -0.02 ± 0.035 | I -0.244 ± 0.086 | E -0.037 ± 0.078 | K -0.189 ± 0.15 | R -0.014 ± 0.033 | H -0.124 ± 0.063 | F -0.712 ± 0.087 | M -0.291 ± 0.054 | T -0.025 ± 0.047 | A -0.065 ± 0.041 | Y -0.274 ± 0.089
L44: H -0.825 ± 0.2 | R -0.989 ± 0.095 | S -0.745 ± 0.079 | G -0.711 ± 0.067 | Q -1.09 ± 0.21 | F -0.108 ± 0.054 | C -0.282 ± 0.063 | D -0.945 ± 0.33 | K -0.862 ± 0.16 | A -0.715 ± 0.066 | P -0.865 ± 0.055 | E -0.876 ± 0.14 | M -0.019 ± 0.057 | V -0.193 ± 0.046
T43: F -0.299 ± 0.15 | D 0.034 ± 0.081 | H -0.149 ± 0.075 | S 0.014 ± 0.038 | R -0.027 ± 0.029 | P 0.013 ± 0.041 | I -0.202 ± 0.074 | Q -0.016 ± 0.055 | Y -0.005 ± 0.1 | W -0.123 ± 0.048 | C 0.013 ± 0.066 | V -0.065 ± 0.041 | N -0.037 ± 0.053 | K 0.102 ± 0.072 | M -0.043 ± 0.075 | A 0 ± 0.041
F59: V -0.803 ± 0.072 | I -0.507 ± 0.12 | T -1.02 ± 0.27 | E -0.954 ± 0.15 | S -0.626 ± 0.068 | P -1.02 ± 0.17 | W -0.263 ± 0.051 | A -0.813 ± 0.082 | L -0.424 ± 0.041 | K -0.815 ± 0.22 | H -0.931 ± 0.23 | G -0.888 ± 0.063 | C -0.972 ± 0.3 | N -0.74 ± 0.19 | R -0.552 ± 0.058 | Y -0.853 ± 0.13
L51: H -0.928 ± 0.24 | K -1.13 ± 0.32 | V -0.652 ± 0.047 | P -0.746 ± 0.082 | M -0.163 ± 0.048 | T -0.825 ± 0.1 | N -0.897 ± 0.27 | A -0.982 ± 0.1 | I -0.374 ± 0.072 | D -0.786 ± 0.3 | W -1.04 ± 0.15 | F -0.815 ± 0.12 | R -0.813 ± 0.064 | Q -0.951 ± 0.27 | E -0.818 ± 0.13 | G -0.92 ± 0.063
E57: W -0.135 ± 0.068 | T -0.068 ± 0.061 | L -0.076 ± 0.044 | A 0.011 ± 0.047 | S -0.051 ± 0.042 | D -0.063 ± 0.089 | G -0.045 ± 0.042 | C -0.058 ± 0.086 | N -0.192 ± 0.099 | R -0.082 ± 0.037 | M -0.139 ± 0.073 | I -0.153 ± 0.14 | K -0.122 ± 0.089 | H -0.023 ± 0.093 | Q -0.046 ± 0.063 | V -0.081 ± 0.04 | P -0.098 ± 0.043 | Y 0.009 ± 0.098
E50: I -0.156 ± 0.073 | P -0.94 ± 0.091 | K -0.041 ± 0.088 | D -0.041 ± 0.06 | W -0.672 ± 0.049 | A -0.074 ± 0.041 | Y -0.117 ± 0.076 | L -0.201 ± 0.031 | N -0.252 ± 0.091 | S -0.291 ± 0.039 | Q 0.013 ± 0.056 | G -0.594 ± 0.038 | H -0.2 ± 0.11 | C -0.088 ± 0.075 | R -0.249 ± 0.034 | M -0.24 ± 0.071
S53: T -0.144 ± 0.09 | Q -0.085 ± 0.064 | W -0.381 ± 0.064 | N -0.033 ± 0.085 | C -0.061 ± 0.061 | R -0.057 ± 0.037 | G -0.068 ± 0.037 | D 0.076 ± 0.089 | P -0.522 ± 0.072 | V -0.331 ± 0.065 | F -0.269 ± 0.063 | A -0.063 ± 0.055 | M -0.121 ± 0.055 | H -0.171 ± 0.077 | L -0.108 ± 0.042
D58: K -0.129 ± 0.078 | G -0.071 ± 0.03 | M -0.004 ± 0.083 | H -0.149 ± 0.1 | E -0.095 ± 0.044 | W -0.19 ± 0.046 | L -0.087 ± 0.044 | P -0.943 ± 0.19 | V -0.091 ± 0.044 | C -0.177 ± 0.063 | T -0.053 ± 0.09 | S 0.003 ± 0.042 | I -0.022 ± 0.094 | R -0.092 ± 0.037 | Q -0.03 ± 0.053 | A -0.041 ± 0.043 | Y -0.165 ± 0.085 | N -0.188 ± 0.078
R49: A 0.006 ± 0.038 | T -0.085 ± 0.053 | Y -0.077 ± 0.066 | Q -0.021 ± 0.061 | P 0.001 ± 0.052 | D -0.1 ± 0.087 | G -0.125 ± 0.031 | I -0.203 ± 0.12 | E 0.041 ± 0.046 | W -0.143 ± 0.043 | K -0.086 ± 0.08 | F -0.113 ± 0.073 | L -0.072 ± 0.034 | S -0.006 ± 0.034 | V -0.082 ± 0.041 | C -0.109 ± 0.066 | N -0.257 ± 0.17 | M 0.042 ± 0.061 | H -0.152 ± 0.1
V63: A -0.075 ± 0.044
N45: A 0.003 ± 0.044 | T -0.01 ± 0.046 | L -0.195 ± 0.037 | D -0.148 ± 0.089 | W -0.276 ± 0.045 | E -0.039 ± 0.047 | S -0.019 ± 0.033 | H 0.015 ± 0.068 | R -0.038 ± 0.032 | V -0.122 ± 0.039 | M -0.054 ± 0.078 | Q -0.086 ± 0.062 | K 0.032 ± 0.071 | P -0.373 ± 0.04 | Y -0.191 ± 0.086 | I -0.251 ± 0.13 | F -0.348 ± 0.11 | C -0.063 ± 0.066
I46: M 0.069 ± 0.06 | G -0.796 ± 0.073 | K -0.835 ± 0.24 | L -0.034 ± 0.042 | P -1 ± 0.12 | S -1 ± 0.096 | N -0.644 ± 0.27 | Q -0.828 ± 0.16 | V -0.109 ± 0.043 | C -0.17 ± 0.06 | R -0.909 ± 0.09 | F -0.237 ± 0.1 | W -0.257 ± 0.043 | H -0.874 ± 0.35 | E -0.939 ± 0.22 | A -0.584 ± 0.054 | T -0.654 ± 0.078

From the Human Domainome abundance scans (Beltran et al. 2025)
